The source of these data is patent publication CN114106174A (SUZHOU SCENE MEDICAL SCIENCE AND TECH LIMITED COMPANY, dated 2022).

T1: OX40 on OX40-overexpressing cells (OX40过表达细胞表面OX40) (UniProt P43489 29-277, limits assumed)
T1 construct: whole, on cells; The cell line and the construct of the overexpressing cells are not described; also called CD134; TNFRSF4
T1 sequence (looked up): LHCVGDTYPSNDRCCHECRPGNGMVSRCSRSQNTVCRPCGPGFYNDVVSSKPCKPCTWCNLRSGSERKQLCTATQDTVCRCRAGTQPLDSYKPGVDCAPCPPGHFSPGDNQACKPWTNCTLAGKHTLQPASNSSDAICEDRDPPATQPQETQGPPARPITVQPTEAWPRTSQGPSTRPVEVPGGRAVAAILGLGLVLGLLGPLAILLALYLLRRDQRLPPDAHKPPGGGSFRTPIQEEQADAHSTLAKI

B1: 38D9-12 (antibody, V domains shown)
VH: QVQLQESGPGLVKPSGTLSLTCAVSGDSISSTNWWSWVRQPPGKGLEWIGEINHNGSTYYNPSLKSRVTISVDKSKNQFSLKLRSVTAADTAVYYCAREDYYYMDVWGKGTTVTVSS
VL: DIQMTQSPSSLSASVGDRVTITCRTSQGIWNDLGWYQQKPGKAPKRLIYAASSLQSGVPSRFSGSESGTEFTLTISSLQPEDFATYYCLQYNNYPLTFGGGTKVEIKR
B2: 35B8-6 (antibody, V domains shown)
VH: QITLKESGPTLVKPTQTLTLTCTFSGFSLSTSAVNVGWIRQPHGKALEWLALIFWNDDKRYSPSLKNRLTITKDTSKDQVVLTMSNMDPVDTATYYCAQYNWNSSFDYWGQGTLVTVSS
VL: DIQMTQSPSSLSASLGDRVTITCQASQDINTYLNWYQQKPGKAPKVLIYDASNLETGVPSRFSGSGSGTDFTFTISSLQPEDIATFYCQQYDNLITFGGGTKVEIKR
B3: 29A9-5 (antibody, V domains shown)
VH: QVQLQESGPGLVKPSGTLSLTCAVFGDSISSSYWWSWVRQPPGKGLEWIGEIYHSGSTHYNPSLKSRVTISVDKSKNHLSLKLISVTDADTAVYYCAGEDTGWPFDFWGQGTLVTVSS
VL: not shown
B4: 48D10-5 (antibody, V domains shown)
VH: QVQLVQSGAEVKKPGASMKVSCKASGYTFANFGINWVRQAPGQGLEWMGWISAYNGYTNYAQQFQGRITMTTDTSTSTAYMELRSLRSDDTAIYYCVIWFGELLSFDYWGQGTLVTVSS
VL: DIQMTQFPSSLSASVGDRVTITCRASQDISNYLAWFQQKPGKAPKSLIYAASSLQSGVPSKFSGNGFGTDFTFPLSRMQPEDFASSYCQQYNNYTFTFGRGTKVEIKR
B5: 23D1-8 (antibody, V domains shown)
VH: QVQLVQSGAEVKKPGASVKVSCKASGYTFTGYYIHWVRQAPGQGLEWMGRINPNSGGTDFAQKFQARVTMTRDTAINIVYMELSRLRSDDTAVYYCARVVVASYYFDNWGQGTLVTVSS
VL: not shown
B6: 28E3-4 (antibody, V domains shown)
VH: QVQLQESGPGLVKPSGTLSLTCAVSGGSISRSNWWTWVRQSPGKGLEWIGEIYHSGNTNYNPSLKSRVTISLDKSKNQFSLKLSSVTAADTAVYYCASSGSLYMDVWGKGTTVTVSS
VL: DIQMTQSPSSLSASVGDRVTISCRASQSTSSYLNWYQQKPGKAPRLLIYGASSLQSGVPSRFSGSGSGTDFILTISSLQPEDFATYYCQQSYSIPITFGQGTRLEIKR
B7: 4D9-12 (antibody, V domains shown)
VH: B6 VH with R31S, T36S, S41P, N59I
VL: B6 VL with S12L, A13S, Q27H, S28G, T29S, S31T, S67F, L78M
B8: 18F11-4 (antibody, V domains shown)
VH: QVQLQESGPGLVKPSGTLSLTCAVSGGSISSYNWWSWVRQPPGKGLEWIGEIYHSGSTNYNPSLKSRVTISVDKSKNQFSLKLSSVTAADTAVYYCARDEDYYGSGNYYHWGQGTLVTVSS
VL: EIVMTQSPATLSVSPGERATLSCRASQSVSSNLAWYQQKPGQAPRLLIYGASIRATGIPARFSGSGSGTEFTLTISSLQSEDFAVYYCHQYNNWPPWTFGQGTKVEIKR
B9: 24B9-10 (antibody, V domains shown)
VH: QVQLQESGPGLVKPSGTLSLTCAVSGGSISSSNWWTWVRQPPGKGLEWIGEIYHSGSTNYNPSLKSRVTISVDKSKNQFSLKLSSVTAADTAVYYCARTGPIVTTEYWGQGTLVTVSS
VL: EIVLTQSPGTLSLSPGERATLSCRASQSVSSGYLAWYQQKPGQAPRLLIYGASIRATGIPDRFSGSGSGTDFTLTISRLEPEDFALYYCQQYGSSPLTFGGGTKVEIKR
B10: 24A12-12 (antibody, V domains shown)
VH: B9 VH with S15A, T36N, K74T, S84T, I102T, E106D
VL: B9 VL with G32S, I54Y, I59M, D61E, L86I, S94R

Substitutions are numbered along the chain they refer to.

The assay deals with T1, OX40 on OX40-overexpressing cells …. Nature of the assay: flow cytometry, hybridoma supernatant on OX40-overexpressing cells, goat anti-mouse IgG-PE.
Turning to B1, the Y586通道PE荧光值 was found to be 243000. For B2 the value was 243000; for B3, 221000. The figure for B4 is 358000. With B5, the Y586通道PE荧光值 was found to be 166000. For B6 the value was 195000; for B7, 187000. The figure for B8 is 402000; for B9 it is 313000; for B10 it is 343000.
